The target of the experiment is HLA-DR1 (HLA-DRA*0101, HLA-DRB1*0101) (human). Briefly: ELISA. Background: An ELISA detects its analyte on a solid surface through an enzyme-linked reagent.

A word on the IC50: it is the concentration needed to halve the response being measured. The substance “influenza A virus hemagglutinin (HA) peptide HA305-319” showed a half-maximal inhibitory concentration (IC50) of 0.029 µM.

For the origin of these results see PMC10840515.
